Experimental data from patent publication US20250325702A1, “COMPOSITIONS AND METHODS FOR EDITING A TRANSTHYRETIN GENE” (Beam Therapeutics Inc., priority 2022, published 2025).
In the oligonucleotide strings, read from the 5' end, every base follows the letter of its sugar. An asterisk marks phosphorothioate; unmarked linkages are phosphodiester. Other units and linkages are bracketed, terminal groups are in braces. A string of capitals states the bases alone. m = 2'-O-methyl; r = 2'-OH (RNA)

What was measured:
[1] = system: human TTR gene; experiment: Base editing in primary human hepatocytes (gRNA + ABE8.8 mRNA transfection, NGS of amplicons); format: cell-based; conditions: for Human hepatocytes- Editing % 625, rep 1 / Human hepatocytes- Editing % 625, rep 2: 625 ng/RNA/mL; for Human hepatocytes- Editing % 625, rep 1 / Human hepatocytes- Editing % 625, rep 2 / Human hepatocytes- Editing % 1250, rep 1 / Human hepatocytes- Editing % 1250, rep 2 / Human hepatocytes- Editing % 2500, rep 1 / Human hepatocytes- Editing % 2500, rep 2: gRNA + ABE8.8 mRNA 1:1; for Human hepatocytes- Editing % 1250, rep 1 / Human hepatocytes- Editing % 1250, rep 2: 1250 ng/RNA/mL; for Human hepatocytes- Editing % 2500, rep 1 / Human hepatocytes- Editing % 2500, rep 2: 2500 ng/RNA/mL; for editing activity (percent splice editing) in human hepatocytes: primary human hepatocytes, ABE8.8 mRNA 1:1, three days after transfection
Source text: In this example, gRNA sequences were identified that permit ABE8.8 (and other ABE variants containing Streptococcus pyogenes Cas9, such as ABE7.10, or another Cas protein that can use the NGG PAM) to either: 1) disrupt the start codon, and/or 2) disrupt splice sites, whether donors or acceptors, via A→G editing within its editing window (roughly positions 4 to 7 in the 20-nt protospacer region of DNA). Five sequences were identified throughout the human TTR gene that disrupt TTR expression (Table 8). gRNAs were synthesized matching each of the protospacer sequences and otherwise conforming to the standard 100-nt Streptococcus pyogenes CRISPR gRNA sequence, with each gRNA molecule having a minimal degree of chemical modifications (specified in Table 8). Each of the gRNAs was co-transfected with an equivalent amount of in vitro transcribed ABE8.8 mRNA (1:1 ratio by molecular weight) into primary human hepatocytes via MessengerMax reagent (Lipofectamine), using various dilutions (2500,1250, 625 ng/RNA/mL) to assess for editing activity at different concentrations of test article.
(§1) For orthogonal protospacer sequences of the corresponding cynomolgus monkey TTR gene sequence, each gRNA was also transfected with an equivalent amount of ABE8.8 mRNA (1:1 ratio by molecular weight) into primary cynomolgus hepatocytes at 5000, 2500, 1250, 625, 312.5, and 156.25 ng/RNA/mL. The mRNA, and corresponding amino acid, sequence of the ABE8.8 (MA004) used in shown below in Table 18. Three days after transfection, genomic DNA was harvested from the hepatocytes, and assessed for base editing with next-generation sequencing of PCR amplicons generated around the target splice site. […] See FIGS. 5A-5C, FIG. 6, and Tables 9-10.

[2] = system: on-target site and candidate off-target sites; experiment: Validation of candidate off-target sites in primary human hepatocytes; format: cell-based; conditions: for editing efficiency at the on-target site: gRNA + ABE8.8 mRNA
Procedure: Several candidate off-target sites were analyzed for off-target editing in human primary hepatocytes.

[3] = molecular target: purified cyno TTR protein (Abcam, ab239566) (cyno (Macaca fascicularis)) (UniProt Q8HXW1); experiment: sandwich ELISA; known concentrations of purified cyno TTR run on the human TTR kit, read against the human TTR standards
[4] = system: cynomolgus monkey TTR gene; experiment: Base editing in primary cynomolgus hepatocytes (gRNA + ABE8.8 mRNA transfection, NGS); format: cell-based; conditions: for Cyno hepatocytes- Editing % 156.25: 156.25 ng/RNA/mL; for Cyno hepatocytes- Editing % 156.25 / Cyno hepatocytes- Editing % 312.5 / Cyno hepatocytes- Editing % 625 / Cyno hepatocytes- Editing % 1250 / Cyno hepatocytes- Editing % 2500 / Cyno hepatocytes- Editing % 5000: gRNA + ABE8.8 mRNA 1:1; for Cyno hepatocytes- Editing % 312.5: 312.5 ng/RNA/mL; for Cyno hepatocytes- Editing % 625: 625 ng/RNA/mL; for Cyno hepatocytes- Editing % 1250: 1250 ng/RNA/mL; for Cyno hepatocytes- Editing % 2500: 2500 ng/RNA/mL; for Cyno hepatocytes- Editing % 5000: 5000 ng/RNA/mL; for editing activity in cynomolgus primary hepatocytes: ABE8.8 mRNA 1:1, three days after transfection
Procedure: as §1

[5] = system: transthyretin (TTR) gene; experiment: Guide RNA screen in HEK293T cells: splice site disruption by base editors and bhCas12b nuclease (Example 5); format: cell-based, human; conditions: editor mRNA + sgRNA
Procedure: The guide RNAs listed in Table 1 were screened for use in editing the transthyretin (TTR) gene by disrupting splice sites (FIG. 29A-29C) or using a bhCas12b nuclease strategy (FIG. 30). 15 total guide RNAs were screened. The screen was performed in HEK293T cells using based editors and bhCas12b delivered as mRNA and the sgRNAs. The guide RNAs sgRNA_361 and sgRNA_362 worked well in splice site disruption (FIGS. 29A-29C) using ABE and/or BE4. Several of the gRNAs functioned well as bhCas 12b nuclease gRNAs.
Cells were cultured at 37° C. with 5% CO2. HEK293T cells [CLBTx013, American Type Cell Culture Collection (ATCC)] were cultured in Dulbecco's modified Eagles medium plus Glutamax (10566-016, Thermo Fisher Scientific) with 10% (v/v) fetal bovine serum (A31606-02, Thermo Fisher Scientific). Cells were tested negative for mycoplasma after receipt from supplier.
HEK293T cells were seeded onto 48-well well Poly-D-Lysine treated BioCoat plates (Corning) at a density of 35,000 cells/well and transfected 18-24 hours after plating. Cells were counted using a NucleoCounter NC-200 (Chemometec). A solution was prepared containing Opti-MEM reduced serum media (ThermoFisher Scientific), the base editor, nuclease, or control mRNA, and sgRNA. The solution was combined with Lipofectamine MessengerMAX (ThermoFisher) in Opti-MEM reduced serum media and left to rest at room temperature for 15 min. […]

[6] = GA459 On-target site (SEQ ID NO: 468)
[7] = GA459 off-target site OT1 (SEQ ID NO: 1095)
[8] = GA459 off-target site OT3 (SEQ ID NO: 1096)

Molecule | Human hepatocytes- Editing % 625, rep 1 [1] [%] | Human hepatocytes- Editing % 625, rep 2 [1] [%] | Human hepatocytes- Editing % 1250, rep 1 [1] [%] | Human hepatocytes- Editing % 1250, rep 2 [1] [%] | Human hepatocytes- Editing % 2500, rep 1 [1] [%] | Human hepatocytes- Editing % 2500, rep 2 [1] [%] | editing activity (percent splice editing) in human hepatocytes [1] | editing efficiency at the on-target site ([2]; primary human hepatocytes) | off-target editing observed at candidate off-target sites [2] | other results
GA457: guide RNA, spacer 5′-GCCAUCCUGCCAAGAAUGAG-3′ (SEQ ID NO: 472), human TTR | 17.24 | 15.39 | 26.49 | 24.86 | 33.96 | 31.31 | high editing activity | high editing efficiency | – | net editing at off-target sites ([2]; 47 candidate off-target sites, primary human hepatocytes): less than 0.4%
antibodies of the human prealbumin (TTR) ELISA kit (Abcam, ab231920) (antibody) | – | – | – | – | – | – | – | – | – | cross-reactivity [3]: 4%
GA461: guide RNA, spacer 5′-UACUCACCUCUGCAUGCUCA-3′ (SEQ ID NO: 476) (nucleic acid, chemistry not given here) guide: TACTCACCTCTGCATGCTCAGTTTTAGAGCTAGAAATAGCAAGTTAAAATAAGGCTAGTCCGTTATCAACTTGAAAAAGTGGCACCGAGTCGGTGCTTTT | 21.81 | 22.31 | 32.82 | 32.38 | 40.42 | 39.43 | high editing activity | high editing efficiency | little to no off-target editing | Cyno hepatocytes- Editing % 156.25 [4]: 0.07%; Cyno hepatocytes- Editing % 312.5 [4]: 7.45%; Cyno hepatocytes- Editing % 625 [4]: 13.16%; Cyno hepatocytes- Editing % 1250 [4]: 19.46%; Cyno hepatocytes- Editing % 2500 [4]: 29.8%; Cyno hepatocytes- Editing % 5000 [4]: 37.53%; editing activity in cynomolgus primary hepatocytes [4]: high editing activity
GA459: guide RNA, spacer 5′-GCAACUUACCCAGAGGCAAA-3′ (SEQ ID NO: 474) (nucleic acid, chemistry not given here) guide: GCAACTTACCCAGAGGCAAAGTTTTAGAGCTAGAAATAGCAAGTTAAAATAAGGCTAGTCCGTTATCAACTTGAAAAAGTGGCACCGAGTCGGTGCTTTT | 3.79 | 3.89 | 5.46 | 6.15 | 8.5 | 8.69 | – | high editing efficiency | little to no off-target editing | SUM Editing %- Human Primary Hepatocytes Treat rep 1 [2, 6]: 14.17%; SUM Editing %- Human Primary Hepatocytes Treat rep 2 [2, 6]: 14.29%; SUM Editing %- Human Primary Hepatocytes Treat rep 1 [2, 7]: 1.19%; SUM Editing %- Human Primary Hepatocytes Treat rep 2 [2, 7]: 1.25%; SUM Editing %- Human Primary Hepatocytes Treat rep 1 [2, 8]: 0.98%; SUM Editing %- Human Primary Hepatocytes Treat rep 2 [2, 8]: 0.82%
sgRNA_361: guide RNA, SEQ ID NO: 479 (nucleic acid) guide: mU*mA*mU*rArGrGrArArArArCrCrArGrUrGrArGrUrCrGrUrUrUrUrArGrArGrCrUrArGrArArArUrArGrCrArArGrUrUrArArArArUrArArGrGrCrUrArGrUrCrCrGrUrUrArUrCrArArCrUrUrGrArArArArArGrUrGrGrCrArCrCrGrArGrUrCrGrGrUrGrCmU*mU*mU*rU | – | – | – | – | – | – | – | – | – | splice site disruption using ABE and/or BE4 [5]: worked well
sgRNA_362: guide RNA, SEQ ID NO: 480 (nucleic acid) guide: mU*mA*mC*rUrCrArCrCrUrCrUrGrCrArUrGrCrUrCrArGrUrUrUrUrArGrArGrCrUrArGrArArArUrArGrCrArArGrUrUrArArArArUrArArGrGrCrUrArGrUrCrCrGrUrUrArUrCrArArCrUrUrGrArArArArArGrUrGrGrCrArCrCrGrArGrUrCrGrGrUrGrCmU*mU*mU*rU | – | – | – | – | – | – | – | – | – | splice site disruption using ABE and/or BE4 [5]: worked well
GA460: guide RNA, spacer 5′-UAUAGGAAAACCAGUGAGUC-3′ (SEQ ID NO: 475) (nucleic acid, chemistry not given here) guide: TATAGGAAAACCAGTGAGTCGTTTTAGAGCTAGAAATAGCAAGTTAAAATAAGGCTAGTCCGTTATCAACTTGAAAAAGTGGCACCGAGTCGGTGCTTTT | 23.77 | 22.27 | 38.33 | 35.8 | 47.61 | 47.79 | high editing activity | high editing efficiency | little to no off-target editing | Cyno hepatocytes- Editing % 156.25 [4]: 1.62%; Cyno hepatocytes- Editing % 312.5 [4]: 11.22%; Cyno hepatocytes- Editing % 625 [4]: 18.44%; Cyno hepatocytes- Editing % 1250 [4]: 31.71%; Cyno hepatocytes- Editing % 2500 [4]: 38.25%; Cyno hepatocytes- Editing % 5000 [4]: 40.16%; editing activity in cynomolgus primary hepatocytes [4]: high editing activity
